# Source: publication PMC9817077, “Simple, Reliable Protocol for High-Yield Solubilization of Seedless Amyloid-β Monomer” (ACS Chemical Neuroscience, 2022)
# Assay: SEC-MALS purification and analysis on Superdex 75
# Type: physicochemical
# Protocol: To perform a further test for the presence of seeds, and determine whether the detected oligomers affected the self-assembly kinetics, Aβ(1-42) samples were purified by SEC, and their self-assembly kinetics were compared to those of unpurified samples. In summary, following the protocol used by Hellstrand et al.,[39] […] The fraction eluting from 13.6 to 14.6 min (at 1 mL/min) was collected on ice, diluted variably (60, 80, or 100%, i.e., undiluted) in the elution buffer to give a range of concentrations, supplemented with ThT from a concentrated stock, and used in ThT assays. This purification procedure was repeated several times with reproducible results, and a representative elugram is shown in Figure 6a. The UV absorbance and RI elugrams are very similar to those previously reported for in-house recombinant peptide purified according to the same protocol,[39] and the peak at ∼14 min has already been identified as the monomer. MALS analysis of the ROI from 13.6 to 14.6 min was challenging, as the very weak scattering signal meant that the Mw estimates were particularly sensitive to baseline subtraction errors. Nonetheless, the average Mw value of this ROI across three concordant replicates was 6460 ± 712 Da, where the error margins represent one standard deviation, consistent with the peak containing mostly monomer with a small but significant amount of contaminating oligomer. […] Samples were analyzed and purified in small batches using an analytical Superdex 75 column (GE Healthcare) equilibrated in 20 mM sodium phosphate buffer (pH 8) with 200 μM EDTA and 1 mM NaN3. The column was run with the TIP pump from the AF4 system (Postnova Analytics, Landsberg am Lech, Germany), and in-line UV (280 nm; Shimadzu, U.K.), MALS (Postnova Analytics, Landsberg am Lech, Germany), and RI (Postnova Analytics, Landsberg am Lech, Germany) detectors. The RI detector was purged following equilibration, and the UV and RI detectors were then zeroed. The sample was injected, with an injection volume of 50 μL, and run at 1.0 mL/min for 35 min. Between sample runs, blanks consisting of the same solvent without the Aβ(1-42) were loaded to check that the column was clean and to allow blank subtraction of the detector signals. Data processing and estimation of sample concentration, molecular weight, and recovery were carried out in the AF2000 Control software (Postnova Analytics, Landsberg am Lech, Germany), with final data processing in GraphPad Prism version 8.3.0. For preparative runs, the sample was collected at the end. […] Eluted Aβ was mixed and split into three aliquots; these were then diluted to 60, 80, or 100% (i.e., undiluted) their concentration in the same elution buffer and supplemented with 20 μM ThT from a 2 mM stock, as described in Hellstrand et al.[39] […]
substance,measurement,setting,value
"Aβ(1-42): Ultrapure recombinant Aβ(1-42) purchased from rPeptide, lyophilized from HFIP; disordered amyloid-forming peptide",average Mw of the SEC ROI from 13.6 to 14.6 min,"50 mM NaOH sample, Superdex 75, 20 mM sodium phosphate pH 8, 200 μM EDTA, 1 mM NaN3, 1 mL/min, three concordant replicates, ± SD",6460 ± 712 Da
same,total mass of Aβ(1-42) in the fraction collected from 13.6 to 14.6 min,"50 μL of 1 mg/mL injected, Superdex 75, pH 8",28.4 ± 7.13 µg
same,concentration of the collected monomer fraction,fraction 13.6–14.6 min,6.29 µM
same,recovery in the collected monomer fraction,"fraction 13.6–14.6 min, 50 μL of 1 mg/mL injected",56.8 % of the injected mass
